Results as given in PMC10354751 (Bioengineering & Translational Medicine, 2023).

Assays:
[1] = target: SpyCatcher-mi3 nanoparticle; test: SDS-PAGE of the covalent SpyTag-SpyCatcher conjugate + dynamic light scattering; cPfCSP and SpyCatcher-mi3 mixed and allowed to react overnight at 4°C; conjugate band at ~65 kDa; diameter 48 nm against 34 nm; conditions: scale: cPfCSP molecules per SpyCatcher-mi3 nanoparticle
[2] = target: T1, T1 synthetic peptide (without cysteine residues) (Plasmodium falciparum, synthetic peptide); test: ELISA; competition: 5 ng/mL mAb 2A10 pre-incubated with 0.5, 5 or 50 μg/mL of T1 or B3 peptide without cysteines, then allowed to bind to plates coated with PfCSP; signal normalised to that without peptide; conditions: both partners purified
T1 construct: source: synthetic peptide
T1 chain: DPNANPNVDPNANPNV

[3] = target: T2, B3 synthetic peptide, (NANP)3 (without cysteine residues) (Plasmodium falciparum, synthetic peptide); test: as above; conditions: both partners purified
T2 construct: three NANP repeats of the major repeat region of Plasmodium falciparum circumsporozoite protein; written out from the printed formula (NANP)3; source: synthetic peptide
T2 chain: NANPNANPNANP

[4] = target: T3, full-length recombinant PfCSP (Plasmodium falciparum, strain of the …, UniProt Q7K740); test: as above; conditions: both partners purified
T3 construct: Plasmodium falciparum circumsporozoite protein; source: E. coli, recombinant, provided by Gennova (Pune, India)
T3 sequence (Q7K740 19-374): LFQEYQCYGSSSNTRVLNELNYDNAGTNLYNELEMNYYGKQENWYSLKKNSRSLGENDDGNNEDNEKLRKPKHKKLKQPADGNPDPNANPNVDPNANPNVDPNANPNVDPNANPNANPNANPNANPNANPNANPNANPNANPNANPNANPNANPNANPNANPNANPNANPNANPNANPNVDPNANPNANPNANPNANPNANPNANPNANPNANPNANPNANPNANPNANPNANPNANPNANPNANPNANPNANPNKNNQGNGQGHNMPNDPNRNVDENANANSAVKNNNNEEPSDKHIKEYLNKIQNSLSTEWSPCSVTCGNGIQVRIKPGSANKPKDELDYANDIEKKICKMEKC

For “chimeric PfCSP (cPfCSP) with C-terminal GPGPG spacer, SpyTag and 6x His-tag (from UniProt Q7K740 82-104; Q7K740 311-340; Q7K740 341-397)”, the stoichiometry N [1] was 3.2.

B1: 2A10 antibody (antibody, V domains shown)
VH: QIQLVQSGPELKKPGETVKISCKASGYTFTNYGINWVKQAPGKGLKWMGWINTITEEPTFAEEFTGRFAFSLETSASTAYLQINNLKNEDTATYFCARGSEFGRLVYWGQGASVTVSS
VL: DIQMTQTTSSLSASLGDRVTISCSASQGISNYLNWYQQKPDGTVKLLIFYTSTLYSGVPSRFSGSGSGTDYSLTISNLEPEDIATYYCQQYSRFPYVFGGGTKLEIK
notes: heavy chain gene cloned into the TGEX-HC vector; light chain gene cloned into the TGEX-LC vector; treated as one molecule; also called mAb 2A10; monoclonal antibody 2A10; source: HEK293F, transfected, purified (MabSelect SuRe)
B1: binds [2]; binds [3]; binds [4].
